Test results reported in PMC7920261.

Columns and labels:
[1] = biological target: SARS-CoV-2 spike receptor-binding domain (RBD) (SARS-CoV-2) (UniProt P0DTC2); experiment: ELISA
[2] = biological target: SARS-CoV-2 spike receptor-binding domain (RBD) (SARS-CoV-2) (UniProt P0DTC2); experiment: BLI
[3] = biological target: SARS-CoV-1 spike receptor-binding domain (RBD) (SARS-CoV-1); experiment: BLI

| Substance | IC50 [1] [µM] | Kd [2] [µM] | Kd [3] [µM] |
| --- | --- | --- | --- |
| CTC-445, recombinant (designed binder) | 1.7 | 0.357 | – |
| CTC-445.2, recombinant (designed binder) | 0.0104 | 0.021 | 7.1 |
| CTC-445.2d (designed binder) | 0.0007 | 0.0035 | 0.587 |
